The results in this text go back to US20260117244A1, “INHIBITORY RNA FOR THE CONTROL OF PHYTOPATHOGENS” (priority 2021, published 2026).

The subject of this series is G. orontii MGH1. Kind of series: Spray-induced gene silencing (SIGS), G. orontii spore production on A. thaliana (whole plant and detached leaf assays). Type of series: in vivo, Golovinomyces orontii. The note with it: for average reduction in spore production: vs buffer control.
The mark [1] stands for this setting: A. thaliana detached leaf assay.

B1: LIP1 dsRNA: long dsRNA against G. orontii TAG lipase 1 (target SEQ ID NO:1) (nucleic acid)
chain: ACCTCTGCTGGTTCTATCTCTGCTTTTAACTTATTAGTCGCCAAAGATGGTGCTTTATCTTATAATGGCAAACCGCTATTCCGTGCTGCTATTATGGACAGTGGTAGCATCGTGCCTACTGATGCGGTGAACTCCCCGAAGCCACAAAATGTTTTCGATCAAGTCGTGAGTGCTGGAGGCTGTAGTGAAGCATATGACAAAATTAGCTGTCTACGGAATCTCGACTACACCGAGTTTTTGTTCGCAAGTACATCAGTTCCTGGTCTATTTGACTACCAATCAGTAGCACTTTCATACATCCCGCGACCTGACGGTGATCTTTTGACCGCATCTATGGATGAATT
modifications: misc_feature 1..344: note = Inhibitory double stranded RNA; listed as RNA
As to B1, the “average reduction in spore production” value reads like this: under setting [1], 51%; (A. thaliana whole plant assay) 22%.

B2: BCDO dsRNA: long dsRNA targeting G. orontii MGH1 BCDO (target SEQ ID NO:145) (nucleic acid)
chain: ACTGCTCATAGTAATCCTATCCTATTTGCCCGGCTCGACTCAGGTGATCAAAAGGATTAGTGTAGCTAACACCAATATCTTATACCATGATGGACGGGCTTTGGCGACCTGCGAAAGTGGCCCACCAATGAGAGTTGTTCTCCCTCATCTGGATACAGTCGGTTGGTTCGATGGGCTGAAGGTAGGGGGAGAAAAGGCTACCGATGAATCGGACGGTCAATCCTTTGCGAAAGAAGGAACCTTTAATGTATTGGATGGACGGACAAC
modifications: misc_feature 1..267: note = Inhibitory double stranded RNA; listed as RNA
For B2, the “average reduction in spore production” value is, setting by setting: under setting [1], 54%; (A. thaliana whole plant assay) 50%.

B3: CYP51 dsRNA-1: long dsRNA targeting G. orontii MGH1 CYP51 (target SEQ ID NO:85); link to SEQ ID NO:212 likely (nucleic acid)
chain: TACGTGAAGAAGTGTCCCAGCTTCAAAGGACAAAAAGGCACCGTTAATATAACTGAAGTTATGGCTGAAATCACTATCTACACTGCTTCGCATACTCTACAAGGAAAACAGGTTCGTGACAGGTTTGATTCCTCTTTTGCCGCTCTCTATCATGACCTCGATATGGGGTTCACCCCAATTAATTTTGTGCTGCATTGGG
modifications: misc_feature 1..199: note = Inhibitory double stranded RNA; listed as RNA
In the case of B3, the “average reduction in spore production” value under setting [1] amounted to 30% and the “average reduction in spore production” value (A. thaliana whole plant assay) turned out to be 46%. The “visual powdery mildew coverage and density” value (A. thaliana plants, 9 days post infection, vs buffer control-sprayed plants) is “less powdery mildew coverage and density”.

B4: LIPA dsRNA: long dsRNA against G. orontii TAG lipase A (target SEQ ID NO:2) (nucleic acid)
chain: CTCTTACGCTCATTCTCACGTATATTTCATCGTCGAAAAGGAAGTAGGCCAGAAAGACATATGCACTCTAACATTGAATGTACGAACTGCACTGTTCATATGGGATTTTGGACAAGCTACCAACAAATACGTCCTCATTTATTCTCCAAGATTAGTAGCCTTCGAAAAAAATTCCCTAACTATCGATTGGATTTAGTCGGACACTCACTAGGTGGCGCTGTTGCTGCTCTTGCTGGACTTGATCTTAAATTACTTGGATACGAACCTATCGTAACAAC
modifications: misc_feature 1..278: note = Inhibitory double stranded RNA; listed as RNA
As to B4, the “average reduction in spore production” value is, setting by setting: under setting [1], 67%; (A. thaliana whole plant assay) 41%.
